These results are taken from patent publication US20080056998A1, “COMPOSITION AND PROCESSES FOR CROSSING THE BLOOD-BRAIN BARRIER WITH POLYPEPTIDES FOR IN VIVO NEUROIMAGING” (The General Hospital Corporation, priority 2006, published 2008).

Series [1] deals with brain endothelium. As to the kind of experiment: dual-channel confocal microscopy of brain endothelium. It is filed as in vivo. Conditions: intravenous, about 2.5 nmol; sacrificed 1, 3 or 6 hours after injection. Here is the method:
Further, fluorescence confocal microscopy techniques/systems can be employed to investigate a delivery route of the delivery module after injection. For example, mammals can be injected intravenously with about 2.5 nmol of the exemplary delivery module MPAPCy5.5, perfused, and sacrificed 1, 3 or 6 hours after injection. Brain sections from the sacrificed animals may be frozen. The frozen brain sections can then be stained with, for example, anti-CD31 antibodies followed by FITC-conjugated secondary antibody as described above. Dual-channel confocal microscopy can be performed, for example, in the FITC and Cy5.5 channels. Further, confocal microscopy can be performed using, for example, an Axiovert 200 M inverted microscope (from, e.g., Carl Zeiss, Inc. Thornwood, N.Y.), equipped with an LSM Pascal Vario RGB Laser Module (Arg 458/488/514 nm, HeNe 543 nm, HeNe 633 nm). An exemplary confocal images with a slice thickness of, for example, <0.9 Am can be acquired to produce, for example, FITC and Cy5.5 staining as well as Nomarski optics. Exemplary summation projection of all background-corrected confocal slices can be produced using, for example, LSM 5 Pascal Software. Further, the exemplary confocal images can be color-coded with, for example, green for FITC and red for Cy5.5. […]

The subject of series [2] is mouse brain. Kind of series: ex vivo NIR fluorescence imaging of removed brains and coronal brain slices. Conditions: for ex vivo NIR fluorescent signal of removed brain: 24 hours after injection. Type of series: in vivo. Here is the method: In another exemplary embodiment of the present invention, fluorescence signals may be observed using exemplary ex vivo imaging performed on the exemplary mouse brains post injection of the exemplary delivery module. Exemplary Ex vivo NIR fluorescence imaging can be performed, e.g., 24 hours after the injection of the exemplary MPAP-Cy5.5 delivery module. Upon sacrificing the mice, each mouse brain can be removed, placed into the exemplary imaging system, and imaged as described above.
Additional observations regarding accumulation of the exemplary delivery module in the brain can be obtained after imaging 1 mm-thick coronal brain slices from the exemplary mouse brain. The exemplary mouse brain can be cut into 1 mm coronal brain sections using a slicing apparatus, such as the RBM-2000C provided by Analytical Scientific Instruments, taken at the following exemplary anteroposterior coordinates from bregma, e.g.: +1.1 mm, +0.1 mm, −0.9 mm, −1.9 mm. Referring to FIG. 6, the exemplary brain slices can then be placed into the exemplary imaging system and imaged 600 as described above.

The subject of series [3] is mouse brain. Kind of series: in vivo NIR fluorescence imaging after intravenous injection. Particulars: mice; for crossing of the BBB / accumulation in the brain: MPAP-Cy5.5 at about 24 hours post-injection, Cy5.5 at any point in time; for NIR fluorescent signal in the brain in vivo: imaging 15 min to 44 hours. Here is the method:
In the exemplary embodiment of the present invention, for in vivo optical imaging, n mice can be injected intravenously with about 2.5 nmol of the exemplary delivery module MPAP-Cy5.5, Cy5.5 alone, or saline solution. In an exemplary embodiment of the present invention, n=4 for each group of solutions for a total of 12 mice. Imaging can be performed at various times after injection. For example, it may be performed about 15 and 30 minutes after injection, as well as 1, 2, 3, 6, 24 and 44 hours after injection. For exemplary NIR fluorescent imaging, the mice can be placed into an imaging system, for example a Kodak Imaging Station IS2000MM, equipped with a band-pass filter at about 630 nm and a long pass filter at about 700 nm, such as the Chroma Technology Corporation. Exemplary images can be captured with e.g., charge-coupled device (“CCD”) camera embedded in the imaging system and exemplary analyses may be performed using Kodak ID3.6.3 imaging software.
Initially, after an exemplary intravenous injection of the delivery module into an mammal, such as a mouse, there may be no defined fluorescent signal in the brain for a few hours. […] An increase in the emitted light can occur 24 hours after injection 202, and the signal can continue to accumulate up to approximately 2 days or more 203.

The subject of series [4] is neurons, astrocytes, and endothelial cells. As to the kind of experiment: dual-channel fluorescence microscopy of stained brain sections. It is filed as in vivo, mouse. The source says:
When the exemplary MPAP-Cy5.5 delivery module penetrates the BBB, exemplary dual-channel fluorescence microscopy can be used to observe whether the distribution of the exemplary MPAP-Cy5.5 delivery module in the exemplary brain forms in a cell-type-specific manner. In a further exemplary embodiment of the present invention, an exemplary distribution of the exemplary MPAP-Cy5.5 delivery module within different cell types of a brain can be determined with dual-channel fluorescence microscopy. For example, cryopreserved serial brain sections from mice perfused with the MPAP-Cy5.5 delivery module can be stained for neurons, astrocytes, and endothelial cells using anti-neuronal nuclei antibody (such as, for example, NeuN, monoclonal, from Chemicon International, Temecula, Calif.), anti-glial fibrillary acidic protein antibody (such as, for example, GFAP from Chemicon International, Temecula, Calif.), and anti-CD31 (such as, for example PECAM-1 from BD Biosciences Pharmingen, San Jose, Calif.). The brain sections may be further incubated with corresponding FITC-conjugated secondary antibodies. Further, slides of the brain sections can be mounted in a mounting medium, such as, for example, a Vectashield mounting medium from Vector Laboratories in Burlingame, Calif. Dual-channel fluorescence microscopy in, for example, the Cy5.5 and FITC channels can be performed using, for example, a Nikon Eclipse 50i fluorescence microscope equipped with an appropriate filter set, such as, for example, one provided by Chroma Technology Corporation in Rockingham, Vt. Exemplary images can be acquired using a CCD camera with near-infrared sensitivity (such as, for example, a SPOT 7.4 Slider RTKE from Diagnostic Instruments in Sterling Heights, Mich.).
Although a mechanism for neuronal accumulation remains unclear, it may be possible that preferential targeting into neurons can be related to the higher lypophilicity of neuronal membranes as compared to other cell types. (See, e.g., publications 4 and 6.) Lypophilic peptides may have an advantage to penetrate by adsorptive endocytosis. […] However, some signal may be detectable in the thalamus 904 and the CA3 area of the hippocampus 905.

Series [5] is described as follows: HPLC study of perfused brain homogenate. Type of series: in vivo, mouse. Conditions: brain perfused 24 hours after intravenous injection. Here is the method:
In a further exemplary embodiment of the present invention, the mouse brains can be perfused for 24 hours after injection of the delivery module in order to remove intravascular contents. The brain homogenates can then be subjected to exemplary High-Powered Liquid Chromatography (“HPLC”) analysis.
According to an exemplary embodiment of the present invention, n mice (n=4 for example) can be injected intravenously with the delivery module. The mouse brain uptake of the compound can be detected by HPLC after in situ brain perfusion. A perfused brain can be soaked in a HPLC mobile phase solution for 15 minutes and homogenized on ice using a mechanical homogenizer, such as that which is marketed by Virtis in Gardiner, N.Y. A resulting brain residue can be filtered using, for example, 0.45 Am Whatman Nylon filters, lyophilized, and analyzed by 2D-HPLC, such as that whish is marketed by Lachrome Elite, Hitachi in San Jose, Calif. […] In addition, the detected peak can be correlated and matched with the absorbance spectrum profile of Cy5.5 dye. […] Furthermore, the absorbance profile of this peak can correspond to the absorbance profile of Cy5.5 dye at approximately 670 nm 702.
Upon switching the detection wavelength to 220 nm, the retention time peak at 32 min can be detected along with other more polar peaks, such as those associated with brain metabolites.

Consider “C14-βAla-(Arg)7-Cys(Cy5.5)-NH2 [MPAP-Cy5.5]”, for which, in series [1], the “time after injection to pass through the endothelium” value is ≤ 1 h. In addition, the “ex vivo NIR fluorescent signal of removed brain” value in series [2] is reported as “strong NIR fluorescent signal”. For the same substance, the “distribution in 1 mm coronal brain slices” value in series [2] (slices at +1.1, +0.1, −0.9, −1.9 mm from bregma) is “distributed randomly throughout the brain parenchyma”. In series [3], the “crossing of the BBB / accumulation in the brain” value was “crossed the BBB and accumulate within the mouse brain”. For the same substance, in series [3] (about 2.5 nmol), the “time post-injection at which NIR fluorescent signal is detected in the brain (head summit)” value was 6 h, the “time up to which the brain signal continues to accumulate” value was ≥ 2 days and the “NIR fluorescent signal in the brain in vivo” value is on record as “progressively increasing NIR fluorescent signal”. The “accumulation in peripheral tissues / mouse body” value in series [3] (kidneys and spleen) is given as “accumulation of the delivery module in peripheral tissues”. The accumulation in astrocytes entry in series [4] (GFAP staining) was “may not show widespread accumulation”. Besides, in series [4] (NeuN staining), the accumulation in neurons result is given as “primarily accumulate in neurons”. Also, in series [4] (anti-CD31 staining), the “localization in endothelial cells” value was “no significant localization”. Also, in series [4] (cortex, hippocampus, thalamus), the “distribution over brain regions” value is on record as “detected in almost all regions of the brain”. Besides, the “subcellular localization in neurons” value in series [4] (mouse, in vivo) is reported as “predominantly localized within the cell cytoplasm”. The “degradation in systemic circulation (intact compound in brain homogenate by HPLC)” value in series [5] is listed as “may likely not degrade in systemic circulation”.

With Cy5.5 [reference compound], the “ex vivo NIR fluorescent signal of removed brain” value in series [2] is reported as “no significant signal beyond background levels”. Also, in series [3], the “crossing of the BBB / accumulation in the brain” value is reported as “no accumulation in the brain”. The “NIR fluorescent signal in the brain in vivo” value in series [3] (about 2.5 nmol) was “no signal appears”.
